B1: Conjugate E: anti-CD74 IgG containing residue 30 conjugated to a PEG4-MMAF precursor (conjugate)
VH: QVQLVESGGGVVQPGRSLRLSCAASGFNFSDYGMHWVRQAPGKGLEWVAVIWYDGSISYYADSVKGRFTISRDNSKNTLYLQMNSLRAEDTAVYYCARGGTVEHGAVYGTDVWGQGTTVTVSS
VL: DIQMTQSPSSVSASVGDRVTITCRASQGIGSWLAWYQQKPGKAPKLLIYAADRLQSGVPSRFSGSGSGTDFTLTISSLQPEDFATYYCQQYHTYPLTFGGGTKVEIK
B2: Conjugate E (anti-CD74 IgG-PEG4-MMAF conjugate) (antibody, V domains shown)
VH: B1 VH
VL: B1 VL
modifications: here or on the partner: modified amino acid residue 30 (pAMF) according to Example 2, position not stated for this conjugate, linked to PEG4-MMAF
B3: Conjugate B (anti-CD74 IgG-PEG4-maytansine conjugate) (antibody, V domains shown)
VH: B1 VH
VL: B1 VL
modifications: here or on the partner: modified amino acid residue 30 (pAMF) according to Example 2, position not stated for this conjugate, linked to a PEG4-maytansine linker-payload
B4: Conjugate F: anti-CD74 IgG containing residue 30 conjugated to a PEG4-MMAE precursor (conjugate)
VH: B1 VH
VL: B1 VL
B5: Conjugate C (anti-CD74 IgG-val-cit-PAB-hemiasterlin conjugate) (antibody, V domains shown)
VH: B1 VH
VL: B1 VL
modifications: here or on the partner: modified amino acid residue 30 (pAMF) according to Example 2, position not stated for this conjugate, linked to val-cit-PAB-hemiasterlin

Experiments:
SUP-B15 (ALL) = assay: Cell killing assay (cell proliferation, Cell Titer-Glo); type: cell-based; details: 72 hrs
Method: (§1) Cytotoxicity effects of the free drug linkers and conjugates were measured with a cell proliferation assay. A total of 12500 cells in a volume of 25 μl were seeded in a 384-well flat bottom white polystyrene plate on the day of assay. Free drug-linkers and conjugates were formulated at 2× starting concentration (1000 nM for free drug linkers and 100 nM for ADCs) in RPMI medium and filtered through MultiScreen HTS 96-Well Filter Plates (Millipore). Filter sterilized samples were serial diluted (1:3) under sterile conditions and added into treatment wells. Plates were cultured at 37° C. in a CO2 incubator for 72 hrs. For cell viability measurement, 30 μl of Cell Titer-Glo® reagent (Promega Corp.) was added into each well, and plates processed as per product instructions. Relative luminescence was measured on an ENVISION® plate reader (Perkin-Elmer; Waltham, Mass.). Relative luminescence readings were converted to % viability using untreated cells as controls. Data was fitted with non-linear regression analysis, using log(inhibitor) vs. response, variable slope, 4 parameter fit equation using GraphPad Prism. Data was expressed as % relative cell viability vs. dose of free drug-linker or conjugate in nM.

BDCM (AML) = assay: as above; type: cell-based; details: 72 hrs
Method: as §1

JVM-13 (CLL) = assay: as above; type: cell-based; details: 72 hrs
Method: as §1

K562 (CML) = assay: as above; type: cell-based; design: key to Cell Killing Activity Span: NK = no killing; NB = no binding; details: 72 hrs
Method: as §1

OPM-2 (MM) = assay: as above; type: cell-based; design: key to Cell Killing Activity Span: NK = no killing; NB = no binding; details: 72 hrs
Method: as §1

RPMI-8226 (MM) = assay: as above; type: cell-based; design: key to Cell Killing Activity Span: NK = no killing; NB = no binding; details: 72 hrs
Method: as §1

ARP-1 (MM) = assay: as above; type: cell-based, human; details: 72 hrs
Method: as §1

ARD (MM) = assay: as above; type: cell-based, human; details: 72 hrs
Method: as §1

SU-DHL-6 (NHL) = assay: as above; type: cell-based, human; details: 72 hrs
Method: as §1

CD74 (human), P04233 = assay: cell-based or functional assay
RPMI-6666 (HL) = assay: Cell killing assay (cell proliferation, Cell Titer-Glo); type: cell-based; details: 72 hrs
Method: as §1

Sequence of CD74 (human), P04233 (P04233 whole entry): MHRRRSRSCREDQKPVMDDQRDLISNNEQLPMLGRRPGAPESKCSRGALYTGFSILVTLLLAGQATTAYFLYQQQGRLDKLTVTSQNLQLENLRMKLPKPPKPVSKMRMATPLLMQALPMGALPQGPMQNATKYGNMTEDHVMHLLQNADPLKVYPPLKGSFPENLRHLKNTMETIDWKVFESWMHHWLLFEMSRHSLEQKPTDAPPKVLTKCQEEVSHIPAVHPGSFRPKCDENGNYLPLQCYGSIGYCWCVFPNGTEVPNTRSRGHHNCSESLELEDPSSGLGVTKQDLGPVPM

Row | Molecule | Cell Killing Activity Span (SUP-B15 (ALL)) | IC50 (SUP-B15 (ALL)) | Cell Killing Activity Span (BDCM (AML)) | IC50 (BDCM (AML)) | Cell Killing Activity Span (JVM-13 (CLL)) | IC50 (JVM-13 (CLL)) | Cell Killing Activity Span (K562 (CML)) | IC50 (K562 (CML)) | Cell Killing Activity Span (OPM-2 (MM)) | IC50 (OPM-2 (MM)) | cell killing IC50, JVM-13 (CLL) cells (CD74 (human), P04233) | cell killing IC50, RPMI-6666 (HL) cells (CD74 (human), P04233) | cell killing IC50, SU-DHL-6 (NHL) cells (CD74 (human), P04233) | cell killing Span, ARD (MM) cells (CD74 (human), P04233) | cell killing Span, ARP-1 (MM) cells (CD74 (human), P04233) | cell killing Span, BDCM (AML) cells (CD74 (human), P04233) | cell killing Span, JVM-13 (CLL) cells (CD74 (human), P04233) | cell killing Span, RPMI-6666 (HL) cells (CD74 (human), P04233) | cell killing Span, SU-DHL-6 (NHL) cells (CD74 (human), P04233) | cell killing Span, SUP-B15 (ALL) cells (CD74 (human), P04233) | other results
1 | B1 | 58% | 2.5 nM | 78% | 3.3 nM | 47% | 7.8 nM | NK | > 50 nM | NK | > 50 nM |  |  |  |  |  |  |  |  |  |  | Cell Killing Activity Span (RPMI-8226 (MM)): NK; IC50 (RPMI-8226 (MM)): > 50 nM; Cell Killing Activity Span (ARP-1 (MM)): 71%; IC50 (ARP-1 (MM)): 6 nM; Cell Killing Activity Span (ARD (MM)): 20%; IC50 (ARD (MM)): 18 nM; Cell Killing Activity Span (SU-DHL-6 (NHL)): 98%; IC50 (SU-DHL-6 (NHL)): 0.5 nM
2 | B2 |  |  |  |  |  |  |  |  |  |  | 7.8 nM | 1.5 nM | 0.5 nM | 20% | 71% | 78% | 47% | 80% | 98% | 58% | cell killing IC50, ARD (MM) cells (CD74 (human), P04233): 18 nM; cell killing IC50, ARP-1 (MM) cells (CD74 (human), P04233): 6 nM; cell killing IC50, BDCM (AML) cells (CD74 (human), P04233): 3.3 nM; cell killing IC50, SUP-B15 (ALL) cells (CD74 (human), P04233): 2.5 nM
3 | B3 |  |  |  |  |  |  |  |  |  |  | 2 nM | 1.3 nM | 1.3 nM | 53% | 82% | 95% | 69% | 89% | 98% | 72% | cell killing IC50, ARD (MM) cells (CD74 (human), P04233): 31 nM; cell killing IC50, ARP-1 (MM) cells (CD74 (human), P04233): 16 nM; cell killing IC50, BDCM (AML) cells (CD74 (human), P04233): 15 nM; cell killing IC50, RPMI-8226 (MM) cells (CD74 (human), P04233): 51 nM; cell killing IC50, SUP-B15 (ALL) cells (CD74 (human), P04233): 5.7 nM; cell killing Span, RPMI-8226 (MM) cells (CD74 (human), P04233): 41%
4 | B4 | 65% | 3.7 nM | 94% | 1.4 nM | 59% | 5 nM | NK | > 50 nM | NK | > 50 nM |  |  |  |  |  |  |  |  |  |  | Cell Killing Activity Span (RPMI-6666 (HL)): 82%; Cell Killing Activity Span (RPMI-8226 (MM)): 31%; IC50 (RPMI-8226 (MM)): 20 nM; Cell Killing Activity Span (ARP-1 (MM)): 93%; IC50 (ARP-1 (MM)): 4.2 nM; Cell Killing Activity Span (ARD (MM)): 73%; IC50 (ARD (MM)): 16 nM; Cell Killing Activity Span (SU-DHL-6 (NHL)): 97%
5 | B5 |  |  |  |  |  |  |  |  |  |  | 0.9 nM | 0.9 nM | 0.3 nM | 74% | 87% | 89% | 54% | 84% | 97% | 68% | cell killing Span, RPMI-8226 (MM) cells (CD74 (human), P04233): 43%

From patent publication US20200207859A1 (priority 2017, published 2020)
